The subject of this series is O=C(O)[C@H]1O[C@H](OP(=O)(O)OP(=O)(O)OC[C@H]2O[C@@H](n3ccc(=O)[nH]c3=O)[C@H](O)[C@@H]2O)[C@H](O)[C@@H](O)[C@@H]1O. In words: cells, lysate or membranes. Particulars: proteoliposomes preloaded with 10 mM UMP (antiport), 2 min uptake; transport; kcat printed as turnover rate.

Consider Uut1 (Cryptococcus neoformans H99), for which the Km (as a rule, the concentration of substrate that gives half-maximal velocity) was 0.6 ± 0.1 µM; the kcat (as a rule, the number of substrate molecules converted per active site and unit of time at saturation) was 0.08 s⁻¹.
